Test results published in publication PMC5801593 (Frontiers in Molecular Biosciences, 2017).

Legend:
Settings in all cases: both partners purified
[1] = biological target: T1, cysteine desulfurase IscS (E. coli, UniProt P0A6B7 1-404); experiment: BLI; competition: biotinylated CyaY immobilised on streptavidin biosensors, exposed to 10 μM IscS at IscX 0-60 μM; 20 mM HEPES pH 7.5, 150 mM NaCl, 2 mM TCEP, 0.5 mg/mL BSA, 25°C; apparent Kd from the response reduction, 1:1 model
T1 construct: IscS, cysteine desulfurase of E. coli; Dimer by native MS (observed 91,035 Da, predicted 91,037 Da); An adduct of about +304 Da is put down to beta-mercaptoethanol hetero-disulfides; also called wild-type IscS; source: E. coli BL21(DE3), purified (Ni-NTA, TEV cleavage, gel filtration)

biotinylated IscS = biological target: T2, biotinylated IscS (E. coli, UniProt P0A6B7 1-404, biotin (site not stated)); experiment: BLI; biotinylated IscS immobilised on streptavidin biosensors, IscX 0-50 μM; 20 mM HEPES pH 7.5, 150 mM NaCl, 2 mM TCEP, 0.5 mg/mL BSA, 25°C; apparent Kd, 1:1 model; data not shown
T2 construct: IscS, cysteine desulfurase of E. coli; Same protein as m1, biotinylated to hold it on streptavidin biosensors; also called immobilized IscS; source: E. coli BL21(DE3), purified (Ni-NTA, TEV cleavage, gel filtration), biotinylated

[2] = biological target: T3, IscU-IscS complex (immobilized IscS saturated with IscU) (E. coli, UniProt P0A6B7 1-404; P0ACD4 2-128, biotin (site not stated)); experiment: BLI; IscS immobilised and saturated by IscU (10 μM), titrated with IscX 0-60 μM; apparent Kd, 1:1 model
T3 construct: IscS, cysteine desulfurase of E. coli; as the chain of m7; IscU of E. coli; as the chain of m4; also called IscS saturated by IscU; source: formed on the biosensor from purified E. coli-made proteins: immobilized IscS saturated by IscU (10 μM); copies: 2 +

[3] = biological target: T1, cysteine desulfurase IscS; experiment: native MS; ESI-MS under non-denaturing conditions; IscS 3 μM in 250 mM ammonium acetate pH 8, IscX at 0-16 IscX/IscS molar ratios, 5 min at room temperature; sequential binding model (DynaFit)

| Binder | Kd [1] | Kd (biotinylated IscS) | Kd [2] | Kd of the first two IscX per IscS dimer (primary site) [3] | Kd of the third and fourth IscX per IscS dimer (secondary site) [3] | stoichiometry N [3] | binding result [1] |
| --- | --- | --- | --- | --- | --- | --- | --- |
| IscX (natural protein, E. coli, UniProt P0C0L9 1-66, looked up, also: mixed disulfide with β-mercaptoethanol on majority of protein, most likely, IscX (YfhJ) of E. coli; Predicted mass 7859 Da, observed 7935 Da; the predicted mass may include some; also called YfhJ; source: E. coli BL21(DE3), purified (Ni-NTA, TEV cleavage, gel filtration)) MGLKWTDSREIGEALYDAYPDLDPKTVRFTDMHQWICDLEDFDDDPQASNEKILEAILLVWLDEAE | 6 ± 2 µM | 8 ± 3 µM | 8 ± 2 µM | 13.7 ± 0.4 µM | 170 ± 10 µM | ≤ 4 IscX per IscS dimer |  |
| biotinylated CyaY (natural protein, E. coli, UniProt P27838 1-106, looked up, biotin (site not stated), CyaY, frataxin ortholog of E. coli; Same protein as m3, biotinylated to hold it on streptavidin biosensors; also called immobilized CyaY; source: E. coli BL21(DE3), purified (Ni-NTA, TEV cleavage, gel filtration), biotinylated) MNDSEFHRLADQLWLTIEERLDDWDGDSDIDCEINGGVLTITFENGSKIIINRQEPLHQVWLATKQGGYHFDLKGDEWICDRSGETFWDLLEQAATQQAGETVSFR |  |  |  |  |  |  | binds |
